Patent US10703784B2, “Antigens and epitopes derived from Mycobacterium tuberculosis” (priority 2011, dated 2020)

Tested on: PBMCs from LTBI donors (IFN-γ production)
Assay type: cell-based, human
Details: ex vivo IFN-γ ELISPOT; for Resp. freq.: fraction of 28 LTBI donors responding to epitopes of the antigen; for Total SFC: total spot-forming cells, LTBI donors

Row | Molecule | Resp. freq. [%] | Total SFC [SFC]
1 | Rv0298: MTB protein, novel CD4 T cell antigen; Conserved hypotheticals (protein, listed as Mycobacterium tuberculosis) MTKEKISVTVDAAVLAAIDADARAAGLNRSEMIEQALRNEHLRVALRDYTAKTVPALDIDAYAQRVYQANRAAGS | 11 | 783
2 | Rv0297: MTB protein, novel CD4 T cell antigen; PE/PPE (protein, listed as Mycobacterium tuberculosis) MSFVIAQPEMIAAAAGELASIRSAINAANAAAAAQTTGVMSAAADEVSTAVAALFSSHAQAYQAASAQAAAFHAQVVRTLTVDAGAYASAEAANAGPNMLAAVNAPAQALLGRPLIGNGANGAPGTGQAGGDGGLLFGNGGNGGSGAPGQAGGAGGAAGFFGNGGNGGDGGAGANGGAGGTAGWFFGFGGNGGAGGIGVAGINGGLGGAGGDGGNAGFFGNGGNGGMGGAGAAGVNAVNPGLATPVTPAANGGNGLNLVGVPGTAGGGADGANGSAIGQAGGAGGDGGNASTSGGIGIAQTGGAGGAGGAGGDGAPGGNGGNGGSVEHTGATGSSASGGNGATGGNGGVGAPGGAGGNGGHVSGGSVNTAGAGGKGGNGGTGGAGGPGGHGGSVLSGPVGDSGNGGAGGDGGAGVSATDIAGTGGRGGNGGHGGLWIGNGGDGGAGGVGGVGGAGAAGAIGGHGGDGGSVNTPIGGSEAGDGGKGGLGGDGGGRGIFGQFGAGGAGGAGGVGGAGGAGGTGGGGGNGGAIFNAGTPGAAGTGGDGGVGGTGAAGGKGGAGGSGGVNGATGADGAKGLDGATGGKGNNGNPG | 14 | 154
3 | Rv0299: MTB protein, novel CD4 T cell antigen; Conserved hypotheticals (protein, listed as Mycobacterium tuberculosis) MIAPGDIAPRRDSEHELYVAVLSNALHRAADTGRVITCPFIPGRVPEDLLAMVVAVEQPNGTLLPELVQWLHVAALGAPLGNAGVAALREAASVVTALLC | 14 | 467
4 | Rv3025c: MTB protein, novel CD4 T cell antigen; Intermediary metabolism and respiration, Island 2 (protein, listed as Mycobacterium tuberculosis) MAYLDHAATTPMHPAAIEAMAAVQRTIGNASSLHTSGRSARRRIEEARELIADKLGARPSEVIFTAGGTESDNLAVKGIYWARRDAEPHRRRIVTTEVEHHAVLDSVNWLVEHEGAHVTWLPTAADGSVSATALREALQSHDDVALVSVMWANNEVGTILPIAEMSVVAMEFGVPMHSDAIQAVGQLPLDFGASGLSAMSVAGHKFGGPPGVGALLLRRDVTCVPLMHGGGQERDIRSGTPDVASAVGMATAAQIAVDGLEENSARLRLLRDRLVEGVLAEIDDVCLNGADDPMRLAGNAHFTFRGCEGDALLMLLDANGIECSTGSACTAGVAQPSHVLIAMGVDAASARGSLRLSLGHTSVEADVDAALEVLPGAVARARRAALAAAGASR | 14 | 423
5 | Rv0278c: MTB protein, novel CD4 T cell antigen; PE/PPE (protein, listed as Mycobacterium tuberculosis) MSFVIAAPEVIAAAATDLASLGSSISAANAAAAANTTALMAAGADEVSTAIAALFGAHGQAYQALSAQAQAFHAQFVQALTSGGGAYAAAEAAAVSPLLDPINEFFLANTGRPLIGNGANGAPGTGANGGDGGWLIGNGGAGGSGAAGVNGGAGGNGGAGGNGGAGGLIGNGGAGGAGGVASSGIGGSGGAGGNAMLFGAGGAGGAGGGVVALTGGAGGAGGAGGNAGLLFGAAGVGGAGGFTNGSALGGAGGAGGAGGLFATGGVGGSGGAGSSGGAGGAGGAGGLFGAGGTGGHGGFADSSFGGVGGAGGAGGLFGAGGEGGSGGHSLVAGGDGGAGGNAGMLALGAAGGAGGIGGDGGTLTAGGIGGAGGAGGNAGLLFGSGGSGGAGGFGFADGGQGGPGGNAGTVFGSGGAGGNGGVGQGFAGGIGGAGGTPGLIGNGGNGGNGGASAVTGGNGGIGGTGVLIGNGGNGGSGGIGAGKAGVGGVSGLLLGLDGFNAPASTSPLHTLQQNVLNVVNEPFQTLTGRPLIGNGANGTPGTGADGGAGGWLFGNGANGTPGTGAAGGAGGWLFGNGGNGGHGATNTAATATGGAGGAGGILFGTGGNGGTGGIATGAGGIGGAGGAGGVSLLIGSGGTGGNGGNSIGVAGIGGAGGRGGDAGLLFGAAGTGGHGAAGGVPAGVGGAGGNGGLFANGGAGGAGGFNAAGGNGGNGGLFGTGGTGGAGTNFGAGGNGGNGGLFGAGGTGGAAGSGGSGITTGGGGHGGNAGLLSLGASGGAGGSGGASSLAGGAGGTGGNGALLFGFRGAGGAGGHGGAALTSIQQGGAGGAGGNGGLLFGSAGAGGAGGSGANALGAGTGGTGGDGGHAGVFGNGGDGGCRRVWRRYRRQRWCRRQRRADRQRRQRRQRRQSRGHARCRRHRRAAARRERTQRLAIAGRPATTRGVEGISCSPQMMP | 11 | 45
6 | Rv0442c: MTB protein, novel CD4 T cell antigen; PE/PPE (protein, listed as Mycobacterium tuberculosis) MTSPHFAWLPPEINSALMFAGPGSGPLIAAATAWGELAEKLLASIASLGSVTSELTSGAWLGPSAAAMMAVATQYLAWLSTAAAQAEQAAAQAMAIATAFEAALAATVQPAVVAANRGLMQLLAATNWFGQNAPALMDVEAAYEQMWALDVAAMAGYHFDASAAVAQLAPWQQVLRNLGIDIGKNGQINLGFGNTGSGNIGNNNIGNNNIGSGNTGTGNIGSGNTGSGNLGLGNLGDGNIGFGNTGSGNIGFGITGDHQMGFGGFNSGSGNIGFGNSGTGNVGLFNSGSGNIGIGNSGSLNSGIGTSGTINAGLGSAGSLNTSFWNAGMQNAALGSAAGSEAALVSSAGYATGGMSTAALSSGILASALGSTGGLQHGLANVLNSGLTNTPVAAPASAPVGGLDSGNPNPGSGSAAAGSGANPGLRSPGTSYPSFVNSGSNDSGLRNTAVREPSTPGSGIPKSNFYPSPDRESAYASPRIGQPVGSE | 11 | 232
7 | Rv0279c: MTB protein, novel CD4 T cell antigen; PE/PPE (protein, listed as Mycobacterium tuberculosis) MSFVIAAPEVIAAAATDLASLESSIAAANAAAAANTTALLAAGADEVSTAVAALFGAHGQAYQALSAQAQAFHAQFVQALTSGGGAYAAAEAAATSPLLAPINEFFLANTGRPLIGNGTNGAPGTGANGGDGGWLIGNGGAGGSGAAGVNGGAGGNGGAGGLIGNGGAGGAGGRASTGTGGAGGAGGAAGMLFGAAGVGGPGGFAAAFGATGGAGGAGGNGGLFADGGVGGAGGATDAGTGGAGGSGGNGGLFGAGGTGGPGGFGIFGGGAGGDGGSGGLFGAGGTGGSGGTSIINVGGNGGAGGDAGMLSLGAAGGAGGSGGSNPDGGGGAGGIGGDGGTLFGSGGAGGVCGLGFDAGGAGGAGGKAGLLIGAGGAGGAGGGSFAGAGGTGGAGGAPGLVGNAGNGGNGGASANGAGAAGGAGGSGVLIGNGGNGGSGGTGAPAGTAGAGGLGGQLLGRDGFNAPASTPLHTLQQQILNAINEPTQALTGRPLIGNGANGTPGTGADGGAGGWLFGNGGNGGHGATGADGGDGGSGGAGGILSGIGGTGGSGGIGTTGQGGTGGTGGAALLIGSGGTGGSGGFGLDTGGAGGRGGDAGLFLGAAGTGGQAALSQNFIGAGGTAGAGGTGGLFANGGAGGAGGFGANGGTGGNGLLFGAGGTGGAGTLGADGGAGGHGGLFGAGGTGGAGGSSGGTFGGNGGSGGNAGLLALGASGGAGGSGGSALNVGGTGGVGGNGGSGGSLFGFGGAGGTGGSSGIGSSGGTGGDGGTAGVFGNGGDGGAGGFGADTGGNSSSVPNAVLIGNGGNGGNGGKAGGTPGAGGTSGLIIGENGLNGL | 11 | 45
8 | Rv3012c: MTB protein, novel CD4 T cell antigen; Information pathways (protein, listed as Mycobacterium tuberculosis) MSQISRDEVAHLARLARLALTETELDSFAGQLDAILTHVSQIQAVDVTGVQATDNPLKDVNVTRPDETVPCLTQRQVLDQAPDAVDGRFAVPQILGDEQ | 14 | 233
